Test results taken from patent publication US20210292423A1 (published 2021).
Residue numbers refer to the chain shown, from its start.

B1: 1E6-C9 Fab (Fab, V domains shown)
VH: EVQLVETGGSLVQPGKSLKLTCATSGFTFSYAWMHWVRQSPDKQLQWVAQIKAKSNNYATYYAESVEGRFTISRDDSKSSVYLQMNSLKEEDTAIYYCRGVYYGLLGLDAWGQGTSVTVSS
VL: DVVMTQTPVSLSVRLGGQVSISCRSSQSLVHNNGNTYLSWFLQKPGQSPQLLIYKVSNRFSGISDRFSGSASGTDFTLKISRVEPDDLGVYYCGQGTHYPFTFGSGTKLEIK
notes: also called 1E6-B8; 1E6-B8/B9-C9-Fab
B2: 13H2-C2 Fab (Fab, V domains shown)
VH: EEELVETGGSLVQPGKSLKLTCATSGFTFSNAWMHWVRQSPDKQLEWVAQIKAKSNNYATYYAESVKGRFTISRDDSKSSVYLQMNNLKEEDTAIYYCRYVHYGLAPMDAWGQGTSVTVSS
VL: B1 VL with R14S, F41Y, P45A, A71G, T77I, Y91F, H98Q, S105A, I111L
notes: also called 13H2-C3
B3: 11F9-F8 Fab (Fab, V domains shown)
VH: EVQLVETGGTLVQPGKSLKLTCATSGFTFSNAWMHWVRQSPEKQLEWVAQIKAKSNNYATYYAESVKGRFTISRDDSKTSVYLQLNSLREEDTAIYYCRGTQYGYNPFDYWGQGVMVTVSS
VL: B1 VL with M4L, R14S, F41S, L51V, D65N, A71G, T97A
notes: also called 11F9-F8-huFab
B4: 20E5-F10 Fab (Fab, V domains shown)
VH: EVQLVETGENLVQPGKSLRLTCATSGFSFSNAWMHWIRQSPEKQLEWVAQIKDKSNNYATYYAESVNGRFTISRDDSKSSIYLHMDNLKEEDSAIYYCRYVHYGVRFFYTMDVWGQGTSVTVSS
VL: B1 VL with R14S, G17D, S25P, F41Y, Q50H, L51P, A71G, H98Q
notes: also called 20E5-F10-huFab
B5: 10E6-G6 Fab (Fab, V domains shown)
VH: B3 VH with T10G, P14S, F29V, S30T, A59E, T79S, L85M, R89K
VL: B1 VL with T7S, R14S, N35Y, F41Y, L51V, L52F, A71G, V83I
B6: 12G3-E8 Fab (Fab, V domains shown)
VH: EVRVVETGGSLVQPGKSLKLTCATSGFTFSLAWMHWVRQSPEKKLEWVAQIKDKANNYATYYAESVKGRFTISRDDSKRSVYLQMNRLKEEDTAIYYCRGVYYGFSMTPFDYWGQGVMVTVSS
VL: B1 VL with V3A, R14S, F41Y, L51V, A71G, T74A, H98Q, S105A, I111L

Biological target: T1, human CD3 (TCR complex) on primary human T cells or Jurkat cells (human, UniProt P07766 23-207)
T1 construct: on the cells it stands in the whole TCR/CD3 complex; also called Jurkat E6-1 (expressing human TCR)
Experiment: flow cytometry, primary human T cells
Experimental: The binding capacity of the CD3-Fabs was determined by flow cytometry. Primary human T cells were used as target cells. Therefore, peripheral blood mononuclear cells (PBMCs) were isolated from 200 ml peripheral blood of healthy donors treated with EDTA by Ficoll density centrifugation. 15 ml Histopaque (Sigma-Aldrich) was preloaded on a 50 ml Leucosep-Tube (Greiner bio-one). Blood was diluted with autoMACS Rinsing Buffer+1% BSA (Miltenyi Biotec) and loaded on the membrane of a total of ten prepared tubes. Tubes were centrifuged without brake for 10 min at 1000 xg. PBMCs were collected and washed with autoMACS Rinsing Buffer+1% BSA three times. Finally, PBMCs were resuspended in autoMACS Running Buffer (Miltenyi Biotec) for isolation of T lymphocytes by autoMACSpro technology using the Pan T Cell isolation Kit (Miltenyi Biotec) according to manufacturer's instructions. Purity of separated T cells was analyzed by MACSQuant flow cytometry using the human 7-Color Immunophenotyping Kit (Miltenyi Biotec). Isolated T cells were resuspended in Stain Buffer with FBS (BD Pharmingen) and 1E5 cells in 100 μl per well were seeded in 96-well U-bottom suspension culture plates (Greiner bio-one). Fab antibodies were diluted 1:3 in serial in PBS (Invitrogen) and 5 μl each were added to the cells at a final maximum concentration of 30000 ng/ml. The assay was incubated for 45 min at 4° C. Cells were washed twice with Stain Buffer with FBS and 1 μg secondary antibody Goat F(ab′)2 Anti-Human kappa-FITC (Beckman Coulter, #732621) per well was added in 100 μl Stain Buffer with FBS per well. The assay was incubated for 20 min at 4° C. and washed twice afterwards. Cells were resuspended in 150 μl Stain Buffer with FBS per well and were measured using the MACSQuant (Miltenyi Biotec) or LSRII (BD) flow cytometer. Further data analyses were performed using the FlowJo software (Tree Star, Inc.). Read out was percentage of cells positive for antibody binding. Cells treated only with the secondary but no primary antibody were used to set the gates. EC50 Curves were calculated by XLfit (Algorithm 205), EC50 values were calculated as inflection point of the slope (data are shown in table 6).

Binder	EC50
B1	18.7 nM
B2	14.3 nM
B3	11.6 nM
B4	8.2 nM
B5	4.7 nM
B6	4.4 nM

Biological target: T2, human CD3ε/δ-Fc fusion protein (soluble recombinant CD3ε/δ complex) (human, UniProt P04234 22-105)
T2 construct: also called huCD3ε/δ; huCD3; not shown: hinge, CH2, CH3 of human IgG with tag
Experiment: SPR, CD3-Fc captured, Fab 100 nM
Experimental: (§1) Binding was tested by SPR using a BIAcore3000 instrument run with HBS-EP buffer. Recombinant huCD3 proteins (ε/δ (PB01226), ε/γ (PB01225)) were captured at 10 μl/min via Fc-tag by anti-human Fc capture antibody MAB1302 (Millipore) immobilized on a CM5 sensor chip. Anti-CD3 Fabs were used as analytes at 100 nM with association and dissociation times of 240 sec and 300 sec, respectively at 30 μl/min. After each cycle the surfaces were regenerated by a 2 min pulse of 10 mM glycine buffer pH2.5.

T2 sequence (chain, as listed by the source mutant, chain 1 of 2): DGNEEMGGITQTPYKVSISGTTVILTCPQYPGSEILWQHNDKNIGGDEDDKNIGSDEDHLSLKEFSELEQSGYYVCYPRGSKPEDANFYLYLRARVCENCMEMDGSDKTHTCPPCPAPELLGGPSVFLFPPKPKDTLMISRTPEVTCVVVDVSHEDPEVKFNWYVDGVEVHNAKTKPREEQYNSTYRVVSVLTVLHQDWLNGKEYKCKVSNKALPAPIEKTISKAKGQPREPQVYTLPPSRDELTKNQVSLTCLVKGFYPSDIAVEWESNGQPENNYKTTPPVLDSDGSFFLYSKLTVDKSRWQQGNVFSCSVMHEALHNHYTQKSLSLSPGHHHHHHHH
T2 sequence (P04234 22-105, stated change not applied, chain 2 of 2): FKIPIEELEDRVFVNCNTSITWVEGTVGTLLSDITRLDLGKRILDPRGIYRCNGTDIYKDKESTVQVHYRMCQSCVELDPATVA

Binder	RU of Fab binding at 100 nM
B1	10 RU
B2	9 RU
B3	10 RU
B4	11 RU
B5	11 RU
B6	10 RU

Biological target: recombinant huCD3ε/γ protein with Fc-tag (PB01225) (human, UniProt P07766 23-126; P09693 23-116)
Experiment: SPR, CD3-Fc captured, Fab 100 nM
Experimental: as §1

Binder	RU of Fab binding at 100 nM
B1	7 RU
B2	6 RU
B3	7 RU
B4	8 RU
B5	8 RU
B6	7 RU

Biological target: T2, human CD3ε/δ-Fc fusion protein (soluble …)
Experiment: SPR Biacore, CD3εδ-Fc captured, Fab analyte
Experimental: Binding affinities of anti-CD3 binding Fabs or CODV-Fabs were measured by surface plasmon resonance (SPR) using a Biacore3000 instrument (GE Healthcare). Assay buffer was HBS-EP (BR-1001-88, GE Healthcare). Capture of CD3ε/δ-Fc fusion proteins was achieved using the human antibody capture kit (GE Healthcare). […] The CD3εδ-Fc fusions proteins were captured at 10 μl/min to approx. 70 RU to yield Rmax values of 30 RU. Binding kinetics with the anti-CD3 Fabs or CODV-Fabs was measured at 30 μl/min for 240 sec. and 600 sec. for association and dissociation phase, respectively. Twofold dilutions of Fabs from 3 to 400 nM in assay buffer were used. All Fab concentrations were run in duplicate together with duplicate buffer blanks for double referencing. Regeneration of the capture surface was performed with a 1 min injection of 3M MgCl2 solution at 30 μl/min. For data analysis the BIAevaluation software v.4.1 (GE Healthcare) was used. Data were fit globally using a 1:1 Langmuir model with mass transfer.

Binder	Kd	koff	kon
B1	41 nM	0.0039 s⁻¹	93000 M⁻¹ s⁻¹
B2	29 nM	0.0049 s⁻¹	170000 M⁻¹ s⁻¹
B3	5.2 nM	0.0004 s⁻¹	77000 M⁻¹ s⁻¹
B4	4.3 nM	0.00043 s⁻¹	99000 M⁻¹ s⁻¹
B5	14 nM	0.002 s⁻¹	140000 M⁻¹ s⁻¹
B6	9.3 nM	0.0011 s⁻¹	110000 M⁻¹ s⁻¹

Biological target: T3, human CD3δ expressed alone on HEK293F cells (human, UniProt P04234 22-171)
T3 construct: entry includes the signal peptide; also called huCD3δ
Experiment: flow cytometry, HEK293F transfected with huCD3δ
Experimental: (§2) To analyze binding of antibodies to human CD3ε and human CD3δ expressed on the surface of cells, HEK293F cells were transfected with both constructs either alone or in co-transfection and signals were measured by flow cytometry. For transfection procedure FuGENE HD Transfection Reagent (Promega, #E2311) was used according to manufacturer's protocol.
Cells were incubated on a shaker at 37° C. and 5% CO2. At day one to three after transfection cells were harvested and binding of antibodies was analyzed by flow cytometry.
(§3) Antibodies for staining were seeded at 1 μg in 50 μl per well Stain Buffer with FBS (BD Pharmingen) in 96-well U-bottom suspension culture plates (Greiner bio-one). Harvested transfected cells were resuspended in Stain Buffer with FBS and were added at 50 μl per well to the antibodies. Cells were incubated at 4° C. in the dark for 30 min and were washed twice. 0.5 μg secondary antibody Goat F(ab′)2 Anti-Human IgG-FITC (Beckman Coulter, #732598) or Goat F(ab′)2 Anti-Human kappa-PE (Southern Biotech, #206209), respectively, in combination with 0.5 μg 7-AAD per well was added in 100 μl Stain Buffer with FBS. Cells were incubated at 4° C. in the dark for 15 min and were washed twice. For measurement, cells were resuspended in 200 μl Stain Buffer with FBS. Cells were measured using the MACSQuant (Miltenyi Biotec) or LSRII (BD) flow cytometer, respectively. Further data analyses were performed using the FlowJo software (Tree Star, Inc.).

T3 sequence (P04234 22-171 limits assumed, stated change not applied): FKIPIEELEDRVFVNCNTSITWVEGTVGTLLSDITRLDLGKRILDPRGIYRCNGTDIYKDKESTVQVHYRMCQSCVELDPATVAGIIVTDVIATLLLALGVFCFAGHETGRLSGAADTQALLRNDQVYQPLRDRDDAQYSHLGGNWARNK

Binder	binding result
B1	no binding (tested: <20% of binding of huCD3e + huCD3d)
B2	no binding (tested: <20% of binding of huCD3e + huCD3d)
B3	no binding (tested: <20% of binding of huCD3e + huCD3d)
B4	no binding (tested: <20% of binding of huCD3e + huCD3d)
B5	no binding (tested: <20% of binding of huCD3e + huCD3d)
B6	no binding (tested: <20% of binding of huCD3e + huCD3d)

Biological target: T4, human CD3ε expressed alone on HEK293F cells (human, UniProt P07766 23-207)
T4 construct: also called huCD3ε
Experiment: flow cytometry, transfected HEK293F
Experimental: as §2, §3

Binder	% antibody positive transfected cells
B1	87.7%
B2	93.3%
B3	97%
B4	96.7%
B5	96.3%
B6	96.3%

Biological target: T5, human CD3ε and CD3δ co-expressed on HEK293F cells (human, UniProt P07766 23-207; P04234 22-171)
T5 construct: also called huCD3ε/δ (transfected cells); huCD3e + huCD3d
Experiment: flow cytometry, transfected HEK293F
Experimental: as §2, §3

Binder	% antibody positive transfected cells
B1	91.7%
B2	93%
B3	96%
B4	95.3%
B5	93.3%
B6	96.7%
